Experimental data reported in article PMC5387316, “Distinctive molecular and biochemical characteristics of a glycoside hydrolase family 20 β-N-acetylglucosaminidase and salt tolerance” (BMC Biotechnology, 2017).

Key:
[1] = target: T1, rHJ5Nag (Microbacterium sp. HJ5, UniProt A0A1W6AQA7); assay: pNP release assay, nonlinear mixed-model inhibition fit; type: biochemical; details: 0.1-1.2 mM pNPGlcNAc; pH 6.0; 45 °C; mixed competitive and noncompetitive inhibition (alpha 3.412); product inhibitor at 5.0 and 10.0 mM
T1 construct: pEASY-E2 in E. coli BL21 (DE3), purified on Ni-NTA
T1 sequence (A0A1W6AQA7 21-535): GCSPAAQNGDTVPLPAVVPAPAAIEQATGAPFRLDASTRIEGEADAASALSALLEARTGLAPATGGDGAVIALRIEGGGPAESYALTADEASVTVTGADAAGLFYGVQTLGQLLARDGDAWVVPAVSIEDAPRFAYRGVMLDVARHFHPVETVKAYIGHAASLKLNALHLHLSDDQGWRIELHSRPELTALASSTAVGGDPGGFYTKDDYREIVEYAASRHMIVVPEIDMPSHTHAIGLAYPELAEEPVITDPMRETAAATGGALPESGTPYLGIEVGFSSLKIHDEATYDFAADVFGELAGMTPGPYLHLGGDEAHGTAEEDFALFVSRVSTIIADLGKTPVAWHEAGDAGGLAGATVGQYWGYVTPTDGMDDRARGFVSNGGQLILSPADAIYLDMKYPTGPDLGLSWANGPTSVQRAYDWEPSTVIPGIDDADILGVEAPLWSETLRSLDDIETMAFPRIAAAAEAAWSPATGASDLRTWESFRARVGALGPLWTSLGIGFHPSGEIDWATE

[2] = substrate: CC(=O)N[C@H]1[C@H](Oc2ccc([N+](=O)[O-])cc2)O[C@H](CO)[C@@H](O)[C@@H]1O; assay: pNP release assay, nonlinear Michaelis-Menten fit; type: biochemical, Microbacterium sp. HJ5; details: pH 6.0, 45 °C, McIlvaine buffer, without added GlcNAc

CC(=O)N[C@H]1C(O)O[C@H](CO)[C@@H](O)[C@@H]1O (stereo partly drawn) [N-acetylglucosamine]
Ki [1]: 14.6 mM

B1: rHJ5Nag (Microbacterium sp. HJ5) (protein)
chain: T1 sequence (A0A1W6AQA7 21-535)
notes: pEASY-E2 in E. coli BL21 (DE3), purified on Ni-NTA
Km [2]: 520 ± 50 µM | kcat [2]: 2886 ± 116 s⁻¹
